{"source": "the supplement of paper PMC12764529", "note": "± gives the half width of the 95% confidence interval.", "data": [{"test": "folding stability dG unfold (combined trypsin and chymotrypsin); higher = more stable", "how_it_was_run": "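K50 was inferred by Bayesian fitting of sequencing counts obtained after protease digestion of designed mini-proteins. Unfolding free energy was derived by comparison with a sequence-predicted unfolded-state K50 and a shared folded-state K50, for each protease or both combined. The mini-proteins were under 80 residues, had no cysteine, were carried in a PA-tagged cDNA display construct, and were kept only if AlphaFold2 dimer inter-PAE exceeded 15.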", "units": {"folding stability dG unfold": "kcal/mol"}, "values": [{"sequence": "SSSSMKTVFDPNRPYPRTVLVTFLPDGTVVITAPGKKLSTVKVEIEPPPPLELRPRVSPNGERSPGYLRLGS [r1_496_JUSTAS]", "folding stability dG unfold": "1.47 ± 0.16"}, {"sequence": "SAGGSAGGSAGGPNNKPKPKQVTFDIEIEDIEIDPEHGLISIEIRFPDGGKEITARIPISAGGSAGGSAGGS [r10_427_TrROS]", "folding stability dG unfold": "0.276 ± 0.16"}, {"sequence": "SAGGSAGGSAGGIEDMAEKNPDWKIVEPIEIEIPYYNPDGKWYEVEYTIFVIVPPGDEISAGGSAGGSAGGS [r10_0_TrROS]", "folding stability dG unfold": "1.79 ± 0.23"}, {"sequence": "SAGGSAGGSAGGSAGRLVKETKTTSYIFTFKKPTGEPISKKTSFVTSSLILLSDPSKISSAGGSAGGSAGGS [r4_450_JUSTAS]", "folding stability dG unfold": "4.6 ± 0.44"}, {"sequence": "SAMKVEIVEVKKNEDGSEEITIKIVVPDDKDMTPEELAALLKKEFGVDEVKVEVVDENGYKVITITIKRSAG [r14_228_TrROS_Hall]", "folding stability dG unfold": "3.9 ± 0.24"}, {"sequence": "SAGGSAMRIKVTLENGEEIEIEIEESMTEEEVKELAEELAKKLAEELGIKEVKVEVEEVELPEEEESAGGSA [r15_33_TrROS_Hall]", "folding stability dG unfold": "2.53 ± 0.11"}, {"sequence": "SAGGSAGGSATTTTAPDGSPVTVYPETGVARVYDPATGLWTRLTTRPDGVVEETPLPPGAPLESAGGSAGGS [r12_997_JUSTAS]", "folding stability dG unfold": "0.307 ± 0.068"}, {"sequence": "SAGGSAGGKITINGKEYEIVEVKYDKETNTLHFLIKNKDGTLLKISISPNGKIEIKEVPAEELLSAGGSAGG [r6_699_TrROS_Hall]", "folding stability dG unfold": "3.78 ± 0.23"}, {"sequence": "SAGGGAAEEAARALIDEAKAALGLSEISEVVLTREGDGVTMTVRFPGKGLVITIDLAAGVVTAVEDVSAGGS [r16_171_JUSTAS]", "folding stability dG unfold": "2.11 ± 0.035"}, {"sequence": "SAGGSAGGSAGGSKIYKLKVNGSVEKLIENLKKAGFKVEILSVYYDPETKELYVLFKISSAGGSAGGSAGGS [r4_315_TrMRF]", "folding stability dG unfold": "4.32 ± 0.079"}, {"sequence": "SAGGSAGGSAGGNVRNLDISLDPEEGTIKIKATLPENGQTWEITIPVQIPLPPPPPGDNSAGGSAGGSAGGS [r10_331_TrROS]", "folding stability dG unfold": "0.424 ± 0.29"}, {"sequence": "SAGMKTLEKTGSAAKIEEAIAAGKSLEEVFETAGKDGGTSRTLTEPNRTLTFSGETSKPGVATLTTIPESAG [r5_343_JUSTAS]", "folding stability dG unfold": "-0.0165 ± 0.15"}, {"sequence": "SAGGSAGGSGMTLEEIAERLKEEYNAPEVKVTRDPSKPVYTVTVTLADGSTKTYTIYVPEELGSAGGSAGGS [r12_114_JUSTAS]", "folding stability dG unfold": "3.44 ± 0.092"}, {"sequence": "SAGGMTLEITFPPNVKKVRVEFDEETNEVKVEVEEVDGELVIRVEVPPGQELSEEELERLKKLLEELSAGGS [r16_359_TrROS_Hall]", "folding stability dG unfold": "1.65 ± 0.083"}, {"sequence": "SAGGSAGKKPVEFKVKIMIFNPENGDMYMIEMTITIDPDGQIKIKIKLPDPPRLPPGMVIFIMVYISAGGSA [r15_488_TrROS]", "folding stability dG unfold": "5.01 ± 0.16"}, {"sequence": "SAGGSAGGSAKAKIKKVEVEKEGDKLRVTAEIELEDGYVLKVSFEFKDDEIKMEIEIVPLKDSAGGSAGGSA [r18_79_TrROS_Hall]", "folding stability dG unfold": "3.22 ± 0.48"}, {"sequence": "SAGGPPVTLTLTLTFTETRTVRNPATGETVTVEKVTLTLTITLEPGMSKEQLEALLKELRELFPSLESAGGS [r8_306_TrROS_Hall]", "folding stability dG unfold": "5.11 ± 0.29"}, {"sequence": "SAGGSAGGSAGGPKVEIVEVTVEGDKVTIRVKNEETGEWVTLEVTLKDLPKVTFVLKPKSAGGSAGGSAGGS [r10_655_TrROS_Hall]", "folding stability dG unfold": "1.19 ± 0.11"}, {"sequence": "SAGGSAGGSAKVTYTENSVTIHAKVPEKPLKIEIPNTGKVVTIDLDKEVTVTFPVPKPPDESAGGSAGGSAG [r3_185_TrMRF]", "folding stability dG unfold": "-0.624 ± 0.17"}, {"sequence": "SAGGGPEEIRRAAEALAAELAAELGLEVVEVEVEVREDGTVTVRITVRLPDGSKLEITLTLPAGAPLSAGGS [r8_175_TrROS_Hall]", "folding stability dG unfold": "1.65 ± 0.073"}, {"sequence": "SAGSLEKVTESSTSSDKVEVTTTTLTPLSNPSVPVQYVKTTTTTTLIDPATGKTLSTTTTTTTTPLPAASAG [r5_300_JUSTAS]", "folding stability dG unfold": "0.053 ± 0.19"}, {"sequence": "SAGGSAGGSEVKVLVYPPKGPPRLFADDVPIETLVAQFTAEDPPEPLVLVTKEEAEKLGFPLESAGGSAGGS [r12_379_TrMRF]", "folding stability dG unfold": "0.27 ± 0.22"}, {"sequence": "SVFEMPIKLTLKRRDPDGKGRKVKVTIRIRFEMPPNLPPDDKNDPERRKMHQMMHSNMHERAESLADPLASA [r9_237_TrROS]", "folding stability dG unfold": "1.67 ± 0.28"}, {"sequence": "SAGGKEKKKEKEEKKKKPKPKFIKIKLSPEELLKLAKELPNIDRIFVEVDGKLYEFDAKTGKIVEVDSAGGS [r16_214_TrROS_Hall]", "folding stability dG unfold": "1.97 ± 0.18"}, {"sequence": "SAGGMKIKVTVEVTFPDGTVRTFPVPDATSEEEVRAILAERGFGDLADVPIRITEREPVPAVPPEELLSAGG [r13_493_JUSTAS]", "folding stability dG unfold": "1.69 ± 0.071"}, {"sequence": "SAGGSAGGSAGGGPSSMVTVETKEELLTLPNGEKLIKTTTTTKTPTATTTTTTVLPAELLSAGGSAGGSAGG [r7_682_JUSTAS]", "folding stability dG unfold": "0.515 ± 0.2"}, {"sequence": "SAGGSADENKKPMYFIMVKIEIKFGGKDHKIEIMIPLDNVEKLAKNIAEELGMEIKDVTVSLYPIDSAGGSA [r15_535_TrROS]", "folding stability dG unfold": "3.77 ± 0.15"}, {"sequence": "SAGGIKEFADTLQDHGGTVTVEPVNNGSLKVSIQHRDPEDGRMYRMEIEIPPENNKLEIDDWEPYPNSAGGS [r16_613_TrROS]", "folding stability dG unfold": "0.0987 ± 0.21"}, {"sequence": "SAGGRAEEFATFLAELLRALLPPGEKVRATAVVTPEGVVVRVEHPLGFVAEALVKGDKLVRLELRPVSAGGS [r8_287_TrMRF]", "folding stability dG unfold": "3.6 ± 0.11"}, {"sequence": "SAGGPMYIVIKVEVWNPDNGKKREINIVIPIPPGMTPEQMLEKAKELARTIAEENGYEVRIDEIHIFSAGGS [r8_312_TrROS]", "folding stability dG unfold": "3.03 ± 0.098"}, {"sequence": "SAGGSAGGSAGGMVVRVTKNGTSTEIIVDSEEEAKELLKPLFPDDSEVEIEFVSEEELSSAGGSAGGSAGGS [r10_1167_JUSTAS]", "folding stability dG unfold": "0.718 ± 0.12"}, {"sequence": "SAGGSAGGSEKIIEELKKKFPGLKIDKIEITVKKKKITIELKPPPKVYLTKEELEKKGYKIEKSAGGSAGGS [r12_3_TrROS_Hall]", "folding stability dG unfold": "0.87 ± 0.22"}]}]}
